{
  "source": "the DeepSol protein solubility set",
  "data": [
    {"assay": "soluble on expression in E. coli; label from the status in PepcDB or PDB records", "values": [
      {"sequence": "MMDAMTDPITFAATAAGRDAAHPLRDISFGEIGIATERKPDGTIYVRSTTTLTDYPVRITDRLHHFAETAPDRVFMAERNGEGGWRRISYAEMLRAAQTIASALIARGLSAERPVMILSGNSIDHAMVMFGALYAGVAMCPVSPPYSLVSKDYGKLRHIVGLLTPGLIFADDITAFAPAILATVPEDVELAATRGEVKGRKVTSLAELLATPEHPELAAKHEAIGHDTIAKFLLTSGSTGNPKAVINTQRMICANQVMIREAMAFLKDEPPVIVDWLPWNHTFGGNHNIGLTLFNGGSMYIDDGKPTPAGIASTIRNLREIAPTVYFNVPKGYESLLPVLREDQQLRKLFFSRLHAMFFSGASLAAHVWNGLDEVAVAETGARVPMLTGLGATETAPFFMSVTPQTSRSGHVGLPVPGNEAKLVPNNGKLEVRAKGPNITPGYWRAPELTDKAFDEEGFYKLNDALKPVDANDLSRGFDFDGRISEDFKLASGTWVSVGPLRAKFIAACASLVRDVVIAGLDRDYVTALAILDPDGCKLINATLPLEDLAGMAADHLIREAFRERFATLLTQATGSSNRVTRAVLLGEPLSIDKGEITDKGSVNQRAVLEYRASLIADLYADPPPAHVIALELEHHHHHH", "soluble on expression in E. coli": "soluble"},
      {"sequence": "MSLAERLNNDFQFIEVGRKDPKKKLLRQRKKEFVEIYEPFKPQQSVEQAHRCLGCGNPYCEWKCPVHNFIPNWLKLVSEGNILAAAELSHQTNTLPEVCGRVCPQDRLCEGACTLNDGFGAVTIGSVEKYITDTAFAMGWRPDMSKVKPTGKRVAIIGAGPAGLGCADVLVRAGVTPVVFDKNPEIGGLLTFGIPEFKLEKTVLSNRREVFTGMGIEFRLNTEVGKDVTMEQLLAEYDAVFMGMGTYTYMKGGFPGEDLPGVHDALDFLIANVNRNLGFEKSPEDFVDMQGKKVVVLGGGDTAMDCNRTSIRQGAKAVTCAYRRDEANMPGSRKEVKNAKEEGVKFLYNRQPIAIVGEDKVEGVKVVETRLGEPDARGRRSPEPIPGSEEILPADAVVIAFGFRPSPAPWFEQHGIQLDSQGRVVAPEKGKFKHQTSNPKVFAGGDMVRGSDLVVTAIFEGRTAAEGILDYLEVEGHHHHHH", "soluble on expression in E. coli": "soluble"},
      {"sequence": "MSLENYQFPKDFLWGGAIAANQAEGAFKVDGKGISLADLHKYHKGKTNDEISEEQHKGVSLADIKASMEDKVNYYPKRHGIDFYHTYPEDLALLAEMGFKTFRTSLDWTRIFPTGEETEPNEAGLKYYDQLIDKIIELGMEPIITILHYETPVEIVLNNGGWHNRKVIDLFEKYGKTVLDRYNKKVKYWIVINQINLIQFEPFNSTAIPYDAVDDYLSATYQAVHNQFVASAKIYEYGKALNPDLMIGTMLADCTAYPFSCDPDDIVLAMKRNRMEYFFADVQFQGEYPQYALNYFDENNIHIEITEDDKAVLQKNTMDYLALSYYYSQMVDSKKNDLDPASITPNPHLKANPWGWAVDPKGLYNALSQYWDRYHKPIIIAENGFGMYDKLENGEIHDDYRIDYLSAHLKEMKRAMYDGVEIIAYCAWGPIDIVSCSSAQMEKRYGFIYVDLDNEGNGTGKRIKKDSFSWYKKVIESNGEDLEKGIITITTDPNSSSVDKLAAALEHHHHHH", "soluble on expression in E. coli": "soluble"},
      {"sequence": "MTREIIPILPEAPVETARSGNALPLLREIAEHLHHLLETGEASTIDLSALPLTPGDLEWLRAELGGGEVSVTLHADGASTLDETAFPGVWWIIHRNAQGAVTTQFIEVAFVPELVKSPRADVAAARAALVLRMADL", "soluble on expression in E. coli": "soluble"},
      {"sequence": "MAHHHHHHMKNIFKYKNRLTFFRKGFSTTNKPKVEIKKTILYDSHKKNNAIFKIQHGFYLPDEYKDITLITSNLHTRTNCSLFDYTYRPILKISGEDKINFIEKYVGSDIKGLWENECRISLLLNDKGGIIDDIMIILREKYLLLYLNIQCKEKVYKYLKDKLLENGKLQVQIEEFTSHSSICIQGSKSSDVLKELIDYNNESVETNLDNCSFMSSTLTKINKIDNCILNRYTCTGEDGFDILIPNKYVNDLYNLILKNELVKPGGLAVQNTLRLESGFCEYGKDINEDITPIESNYKWSLGQRRLKELNFNGAHIIMDQIKNGTKIKRVGILINTNIVPKENTKIYSHENAEQIIGYITSSVFSPVLQKPICMGYVKSEYAHINNLIKVDCLNKLEIAQITKLPFVPLSIYKL", "soluble on expression in E. coli": "not soluble"},
      {"sequence": "MQKEKLSALMDGETLDSELLKALTHDPEMQKTWESYHLIRDSMRGDTPDVLHFDISARVMAAIENEPVRQVSPLIPEAQPAPQQWQKMPFWKKVRPWAAQLTQMGVAACVSLAVIVGVQHYNGQSETSQQPETPVFNTLPMMGKASPVSLGVPSEAAPVGSQQQQVQEQRRRINAMLQDYELQRRLHSEQLQFEQAQTQQAAVQVPGIQTLGTQSQ", "soluble on expression in E. coli": "not soluble"},
      {"sequence": "VAKQRPDGIRAYEDPAGGWGALKALAVALKDQQLVVEGIPTLLKQNQPEGFDCPGCAWPDPKHTSAFEFCENGAKAVTWESTPKRVGPDFFAQHTVTSLWECSDYWLEDQGRLTHPMRYDAQTDKYEPVDWQVAFDDIAAKLDALDDPNQLELYTSGRASNEAAFLFQLFGRQFGTNNFPDCSNMCHEPTSVGLPRSIGIGKGTVTLDDFDKAELIISMGHNPGTNHPRMMTPLRNASRRGVKIIVLNPLKERALERFEAPQAPLEMATTSSTPIASCYFQVKVGGDAAALKGICKALVAADKVARAADLAPLLDHTFIVGHTAGFDALVDDLEGCSWSAIERASGLPRADMERIAADYAASNATIVCYGMGITQHVTGTANVQQIANLLLLKGNIGKPGAGICPLRGHSNVQGDRTVGITERPSEAFLDRLRDVFGFEPPRAFGHSVVDSIAAMRDGRAKAVICLGGNLAMAASDPQACFKGFRRLDLAVHLATKLNRTHLLTSKTTYLFPVLGRTDSDIQASGRQALTVEDSMSMVHASRGFLTPPSDQVRSEVAILAGIAKATLRSKSRVDWDALAGNYDLIRDAIEEVFPDFEAYNDRIRKPGGFQLPNSAAMRIWNTPTGKANFAIFAGLEEDETSTDRDVLRMTSLRAHDQYNTTIYGLNDRYRGVFGRRDVLFLNPKDLARLGFAEGDVVDVATALDYARPDRVVQALTLVSYNLPDGCCASYYPEIQPLVALEFRDPECLTPSYKSIPVKVTAARAPLAADRAVGRDGIVGREPGVETATGPSPVSLID", "soluble on expression in E. coli": "soluble"},
      {"sequence": "MSVLSIIACEMLEDELVYVLSKDQNAVRLILVENRQCFRFVRKLKSGNCQARIFPPERISFFIKQMNRPASMKIPNFLLKFPFFGKIHENMKEKNRETITVVVNILKLGLHADCDLLKSEIYRNMKEMVEFSDGILIFYGNCGRPLRGLEAEFKDFNCPLYFLEDEKGNIVDDCISIALGGNDNYAEVMQSGNGTGMIYLTPMWASSWKEMRMEPGDTSDFNVSFLKRHYRKVVKISNEISMGSEFDKNVLNYARTFDMSIIEMKGSMEIAMKSYMNARNGICKKDPIQKSSLEHHHHHH", "soluble on expression in E. coli": "not soluble"},
      {"sequence": "GPGSMDVVATPLWSSPPCGSPMAGTVSSGNPLFHVGRSYYRSAAKAYNMTRYVVESLKLDETVLATSMAYWHTFVDRLELRKFDEIVLSASCVFLASKVEHYKVRLNRVIALVFEISGEGDEMEGWRRMLLEMELLVCHTLGFNFQIIHPMKRIVELVPEDHTQVLECAHRLFLLSFMTPLCVRVPADEVAEALVYLAADGAGQLEPYAGKFRCDAVERREGIINVMIDALAVMRKNTSLPKVDDMIVARRKRMREQESFRPSVAHSSGGTGSLDVTPSAFLVE", "soluble on expression in E. coli": "soluble"},
      {"sequence": "MYMAQPGHIDHIKQINAGRVYKLIDQKGPISRIDLSKESELAPASITKITRELIDAHLIHETTVQEAISRGRPAVGLQTNNLGWQFLSMRLGRGYLTIALHELGGEVLIDTKIDIHEIDQDDVLARLLFEIEEFFQTYAAQLDRVTSIAITLPGLVNSEQGIVLQMPHYNVKNLALGPEIYKATGLPVFVANDTRAWALAEKLFGHSQDVDNSVLISIHHGLGAGIVLDGRVLQGRHGNIGELGHIQIDPQGKRCHCGNYGCLETVASSQAIRDQVTARIQAGEPSCLATVEEISIEDICAAAADGDPLAVDVIQQLGRYLGAAIAIVINLFNPEKILIGGVINQAKSILYPSIEQCIREQSLPVYHQDLKLVESRFYKQATMPGAALIKQALYDGLLLMKVVEG", "soluble on expression in E. coli": "soluble"},
      {"sequence": "MGEQQLDCALDLMRRLPPQHCDKNLTDLIDLCPHLVDDLLSTIDQPLKIAADRETGKQYLLCDYNRDGDSYRSPWSNTYDPPLEDGQLPSEKRRKMEIEANAAFESYRDLYFEGGVSSVYFWDLDNGGFAGIVLIKKEGDGAKNITGCWDSIHVIEITERARQAHYKLTSTIMLWLQTNKSSSGVMNLGGSLTRQHEMDAPINDQNTHLANMGRMIEDQESKMRLTINEIYFGKTKKVMSDLRSTEKQSELEKQDEIVRELNNAMANRGN", "soluble on expression in E. coli": "soluble"},
      {"sequence": "MAHHHHHHMELEEFWLTDGSISDWGEVKKFCGFANTLRTIYVERNPIEQDKRYRDKVYMNLPFVTQIDSWPVVNKDNLEGDRLIQRRAS", "soluble on expression in E. coli": "soluble"},
      {"sequence": "MASDNLSAVLYKQNDLRLEQRPIPEPKEDEVLLQMAYVGICGSDVHYYEHGRIADFIVKDPMVIGHEASGTVVKVGKNVKHLKKGDRVAVEPGVPCRRCQFCKEGKYNLCPDLTFCATPPDDGNLARYYVHAADFCHKLPDNVSLEEGALLEPLSVGVHACRRAGVQLGTTVLVIGAGPIGLVSVLAAKAYGAFVVCTARSPRRLEVAKNCGADVTLVVDPAKEEESSIIERIRSAIGDLPNVTIDCSGNEKCITIGINITRTGGTLMLVGMGSQMVTVPLVNACAREIDIKSVFRYCNDYPIALEMVASGRCNVKQLVTHSFKLEQTVDAFEAARKKADNTIKVMISCRQG", "soluble on expression in E. coli": "soluble"},
      {"sequence": "MGSDKIHHHHHHMKADRLLEIVALLQNHEKLTTHQLVDHLHVSSRTILRDMDTLSALGIPIVSERGRAGGWKLMDHFRSQLSGMSMTELKALFILPSDKVLKDLGIPTKGRDIRLNMLSSLQGNRKHAVRPYLEKVYIDTGTWKPSKERMEEFNVVQQAVFEEKKLYIVYENAKGEQRERLISPLGLVAKGSAWYVVATVETGDIRNFKLSRIKDSKLVREPIVKPETFSLATYWNESKEQFVQTLPSYEATVLAHDSIIHRLTFTGKFVENIQVGHRDDEWVTVNLCFHDEQEITEYVLGFGGRMKLVTPKHLIGRIVQQASAVIQQYASDKEPTNETKEGL", "soluble on expression in E. coli": "not soluble"},
      {"sequence": "MIMNQQLNATKKDKLQVIDWLIENFPNAFFKKGNQVKPLKIGIFDDLIDFYERLDTPPFSKKSLREALSYYSASPAYLSCQKPDTARVDIYGNEVDVVTPEQAKYAYQRYQERYGNKKSQELK", "soluble on expression in E. coli": "not soluble"},
      {"sequence": "MSEQKTIRFIITRQDTADSTPYDEEFEIPYRPNLNVISALMEIRRNPVNVKGEKTTPVTWDMNCLEEVCGACSMVINGKPRQSCTALIDQLEQPIRLKPMKTFPVVRDLQVDRSRMFDSLKKVKAWIPIDGTYDLGPGPRMPEKRRQWAYELSKCMTCGVCLEACPNVNSKSKFMGPAPMSQVRLFNAHPTGAMNKSERLEALMDEGGLADCGNSQNCVQSCPKGIPLTTSIAALNRDTNLQAFRNFFGSDRV", "soluble on expression in E. coli": "not soluble"},
      {"sequence": "MDRFDAMRAFARVVETGSFTKAADTLHMSKTSVTQLVQQLEARLRVRLLNRTTRKVNATADGAAYYERVRQLLADLEDAETSLSGASATPGGRLRVDVPSPFASTILVPALPAFQARYPDILLHLGVSDREVDLIDENVDCVIRGGQIGNLSLAARHVGDLQLGVYASPGYLARAGVPAHPRELQDAQHRIIGFSWSRARRLFPCAMRRRADERIEVAGRHALLLDEGNAYLAAGLAAMGVIGVPTYMAEAHVERGALIRLFGDWRLDPMPLYIAYPQNRHVSAKLRVFIDWIVELMARHAPVTDAPPPHRSARMPGGPAAIPTDITGA", "soluble on expression in E. coli": "not soluble"},
      {"sequence": "MRVRIVGAPSLLVGVISDTHDNLALARRAGEIFARERVEAVIHLGDYVAPFTLAELLGVVGGKAVFYGVFGNNDGERLGLSRVAGGFGASLLDPPATVSIGGRRLLLLHGFGSPENTVELVDALASSGRWDAVLYGHTHKARVERVGGSLVLNPGDGGGSLEKPSAAILDLESMEARLVSLEGAAALEHHHHHH", "soluble on expression in E. coli": "not soluble"}
    ]}
  ]
}
